From the Human Domainome abundance scans (Beltran et al. 2025)
± gives the uncertainty stated by the source.

B1: POU domain, class 4, transcription factor 2, residues 256 to 327; numbered along this chain, Q12837 (parent)
chain: RDLEAFAERFKQRRIKLGVTQADVGSALANLKIPGVGSLSQSTICRFESLTLSHNNMIALKPILQAWLEEAE

Variants of: B1
Assay: abundance fitness (aPCA) (normalised: wild type 0, dead -1); higher = more abundant; growth selection in yeast, the domain comes from the species named
Conditions: Homo sapiens

Point of comparison: A29F, abundance fitness -0.544 ± 0.14. Against it:
- N30T — higher, -0.112 ± 0.092
- N30C — higher, -0.094 ± 0.13
- N30P — higher, -0.146 ± 0.054
- N30M — within error, -0.5 ± 0.11
- N30E — within error, -0.456 ± 0.16
- N30K — higher, 0.054 ± 0.14
- N30Q — higher, -0.059 ± 0.067
- N30S — higher, -0.059 ± 0.061
- N30W — higher, -0.315 ± 0.08
- N30H — higher, -0.087 ± 0.13
- N30A — higher, -0.116 ± 0.082
- N30V — within error, -0.432 ± 0.11
- N30I — within error, -0.766 ± 0.27
- N30G — higher, -0.103 ± 0.097
- N30L — higher, -0.244 ± 0.064
- N30R — higher, -0.189 ± 0.059
- N30Y — within error, -0.183 ± 0.27
- A27T — within error, -0.434 ± 0.11
- A27R — higher, -0.178 ± 0.045
- A27H — higher, -0.172 ± 0.12
- A27P — lower, -0.941 ± 0.12
- A27M — higher, -0.234 ± 0.092
- A27F — higher, -0.114 ± 0.19
- A27N — within error, -0.323 ± 0.14
- A27L — higher, -0.302 ± 0.034
- A27C — higher, -0.215 ± 0.095
- A27S — higher, -0.114 ± 0.048
- A27G — within error, -0.39 ± 0.083
- A27D — higher, -0.123 ± 0.2
- A27V — higher, -0.265 ± 0.092
- A27W — higher, -0.174 ± 0.082
- A27E — higher, -0.029 ± 0.11
- A27Q — higher, 0.068 ± 0.069
- G25Y — within error, -0.404 ± 0.29
- L28P — lower, -0.935 ± 0.14
- L28R — within error, -0.643 ± 0.045
- L28D — within error, -0.596 ± 0.44
- L28Y — within error, -0.747 ± 0.16
- L28M — higher, 0.008 ± 0.085
- L28A — within error, -0.654 ± 0.14
- L28V — higher, -0.143 ± 0.094
- L28W — within error, -0.597 ± 0.1
- L28T — within error, -0.528 ± 0.084
- L28E — within error, -0.657 ± 0.17
- L28H — within error, -0.786 ± 0.19
- L28I — higher, 0.072 ± 0.12
- L28F — higher, -0.215 ± 0.12
- L28S — within error, -0.636 ± 0.064
- V36A — higher, -0.18 ± 0.085
- A29H — higher, -0.198 ± 0.1
- A29Q — higher, 0.108 ± 0.078
- A29I — within error, -0.323 ± 0.18
- A29G — higher, -0.009 ± 0.082
- A29N — higher, -0.116 ± 0.22
- A29K — higher, 0.042 ± 0.1
- A29Y — higher, -0.165 ± 0.14
- A29L — higher, -0.158 ± 0.045
- A29C — higher, -0.136 ± 0.093
- A29E — higher, -0.239 ± 0.079
- A29M — higher, -0.046 ± 0.11
- A29D — within error, 0.03 ± 0.44
- A29W — within error, -0.799 ± 0.22
- A29T — higher, -0.107 ± 0.072
- A29V — higher, -0.237 ± 0.092
- A29S — higher, 0.019 ± 0.052
- G35C — within error, -0.512 ± 0.19
- G35W — within error, -0.525 ± 0.23
- G35E — within error, -0.435 ± 0.19
- G35R — higher, -0.153 ± 0.1
- G35K — within error, -0.389 ± 0.13
- G35Y — within error, -0.763 ± 0.32
- G35L — within error, -0.329 ± 0.076
- G35V — higher, -0.299 ± 0.092
- G35P — within error, -0.77 ± 0.13
- G35H — within error, -0.528 ± 0.18
- G35S — higher, -0.228 ± 0.082
- G35T — within error, -0.365 ± 0.12
- G35A — within error, -0.323 ± 0.1
- G35D — within error, -0.36 ± 0.22
- G35F — within error, -0.084 ± 0.44
- G35N — higher, -0.116 ± 0.24
- P34I — within error, -0.402 ± 0.22
- P34A — higher, -0.244 ± 0.094
- P34T — higher, -0.275 ± 0.092
- P34G — higher, -0.1 ± 0.1
- P34E — higher, -0.036 ± 0.075
- P34D — higher, -0.221 ± 0.13
- P34Y — within error, -0.515 ± 0.36
- P34K — higher, -0.008 ± 0.088
- P34C — within error, -0.679 ± 0.19
- P34W — within error, -0.528 ± 0.12
- P34M — higher, -0.175 ± 0.13
- P34R — higher, -0.231 ± 0.05
- P34S — higher, -0.106 ± 0.054
- P34H — higher, -0.073 ± 0.12
- P34Q — higher, -0.263 ± 0.1
- I33G — higher, -0.116 ± 0.11
- I33M — higher, -0.162 ± 0.094
- I33T — higher, -0.311 ± 0.069
- I33L — higher, -0.081 ± 0.066
- I33S — higher, -0.274 ± 0.048
- I33D — higher, -0.225 ± 0.099
- I33N — within error, -0.434 ± 0.16
- I33Q — within error, -0.426 ± 0.17
- I33V — higher, 0.008 ± 0.055
- I33A — higher, -0.295 ± 0.063
- I33H — within error, -0.438 ± 0.17
- I33K — within error, -0.421 ± 0.094
- I33F — higher, -0.211 ± 0.093
- I33P — within error, -0.357 ± 0.1
- I33C — within error, -0.395 ± 0.22
- I33Y — higher, -0.126 ± 0.11
- I33W — within error, -0.414 ± 0.099
- I33E — higher, -0.205 ± 0.18
- K32E — higher, 0.052 ± 0.11
- K32C — higher, -0.192 ± 0.19
- K32P — within error, -0.33 ± 0.093
- K32I — higher, -0.181 ± 0.058
- K32S — higher, -0.072 ± 0.065
- K32W — higher, -0.188 ± 0.082
- K32Y — higher, 0.061 ± 0.19
- K32T — higher, -0.112 ± 0.11
- K32N — higher, 0.189 ± 0.3
- K32Q — higher, -0.012 ± 0.069
- K32M — higher, -0.215 ± 0.13
- K32L — higher, -0.279 ± 0.065
- K32R — higher, -0.084 ± 0.047
- K32G — higher, -0.24 ± 0.077
- K32F — within error, -0.372 ± 0.14
- K32D — higher, 0.054 ± 0.23
- K32H — higher, -0.178 ± 0.17
- K32V — higher, -0.021 ± 0.097
- S26H — higher, -0.059 ± 0.094
- S26K — within error, -0.176 ± 0.35
- S26W — higher, 0.008 ± 0.093
- S26M — higher, -0.057 ± 0.11
- S26A — higher, 0.176 ± 0.081
- S26T — higher, -0.08 ± 0.16
- S26R — higher, 0.062 ± 0.055
- S26Q — higher, -0.07 ± 0.095
- S26V — higher, -0.234 ± 0.084
- S26P — within error, -0.694 ± 0.089
- S26E — higher, 0.048 ± 0.11
- S26Y — higher, -0.05 ± 0.12
- S26I — within error, -0.275 ± 0.18
- S26D — higher, -0.076 ± 0.12
- S26L — higher, 0.061 ± 0.054
- S26G — higher, -0.164 ± 0.069
- S26F — higher, -0.032 ± 0.12
- S26N — higher, 0.239 ± 0.2
- L31F — higher, -0.018 ± 0.16
- L31C — within error, -0.102 ± 0.31
- L31A — within error, -0.426 ± 0.13
- L31H — within error, -0.379 ± 0.25
- L31R — higher, -0.081 ± 0.061
- L31W — higher, 0.038 ± 0.095
- L31M — higher, 0.032 ± 0.11
- L31I — higher, 0.057 ± 0.24
- L31Q — higher, 0.058 ± 0.08
- L31E — higher, -0.112 ± 0.1
- L31D — within error, -0.509 ± 0.26
- L31K — higher, 0.002 ± 0.22
- L31Y — higher, 0.041 ± 0.23
- L31P — within error, -0.382 ± 0.098
- L31G — within error, -0.572 ± 0.16
- L31T — higher, -0.149 ± 0.1
